Starred links: 1 amine or outer side, 2 acyl side, 3 side chain; linkers in the order of their positions; H or OH if unused. Non-standard residues stand in square brackets, D forms with d. *: point of attachment. Bh4ClF = β-4-chloro-L-homophenylalanine, O=C(C[C@H](Cc1ccc(Cl)cc1)N[*:1])[*:2]; AC4Abu = α-carboxy-4-aminobutyric acid, O=C(C(CCN[*:1])C(=O)[*:3])[*:2]; Oic = O=C(O)[C@@H]1C[C@@H]2CCCC[C@@H]2N1; Phe(4-Cl) = N[C@@H](Cc1ccc(Cl)cc1)C(=O)O; γGlu = O=C(O)[C@H](CCC(=O)[*:2])N[*:1]; 1Nal = N[C@@H](Cc1cccc2ccccc12)C(=O)O; 2Nal = N[C@@H](Cc1ccc2ccccc2c1)C(=O)O; d2Nal = N[C@H](Cc1ccc2ccccc2c1)C(=O)O; dIgl = N[C@@H](C(=O)O)C1Cc2ccccc2C1; B4ClF = β-4-chloro-L-phenylalanine; Gly(cPent) = N[C@H](C(=O)O)C1CCCC1; NMeR = CN[C@@H](CCCNC(=N)N)C(=O)O; Tridecanoyl = CCCCCCCCCCCCC(=O)*; hArg = N=C(N)NCCCC[C@H](N)C(=O)O; Cha = N[C@@H](CC1CCCCC1)C(=O)O; Aic = NC1(C(=O)O)Cc2ccccc2C1; Tle = CC(C)(C)[C@H](N)C(=O)O; Nle = CCCC[C@H](N)C(=O)O; Deg = CCC(N)(CC)C(=O)O; AEEA = NCCOCCOCC(=O)O
T1: human APJ receptor (human, UniProt P35414 1-380)
T1 sequence (looked up): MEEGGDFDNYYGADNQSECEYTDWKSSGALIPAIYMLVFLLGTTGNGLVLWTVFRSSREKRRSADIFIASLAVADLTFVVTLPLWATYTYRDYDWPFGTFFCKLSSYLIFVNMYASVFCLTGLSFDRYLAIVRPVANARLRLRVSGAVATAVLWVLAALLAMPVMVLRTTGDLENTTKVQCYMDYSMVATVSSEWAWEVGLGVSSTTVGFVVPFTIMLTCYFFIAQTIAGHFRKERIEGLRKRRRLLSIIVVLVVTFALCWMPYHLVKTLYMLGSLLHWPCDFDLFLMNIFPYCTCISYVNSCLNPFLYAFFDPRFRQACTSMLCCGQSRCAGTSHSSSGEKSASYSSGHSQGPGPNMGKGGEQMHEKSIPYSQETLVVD

T2: rat APJ receptor (rat, UniProt Q9JHG3 1-377)
T2 sequence (looked up): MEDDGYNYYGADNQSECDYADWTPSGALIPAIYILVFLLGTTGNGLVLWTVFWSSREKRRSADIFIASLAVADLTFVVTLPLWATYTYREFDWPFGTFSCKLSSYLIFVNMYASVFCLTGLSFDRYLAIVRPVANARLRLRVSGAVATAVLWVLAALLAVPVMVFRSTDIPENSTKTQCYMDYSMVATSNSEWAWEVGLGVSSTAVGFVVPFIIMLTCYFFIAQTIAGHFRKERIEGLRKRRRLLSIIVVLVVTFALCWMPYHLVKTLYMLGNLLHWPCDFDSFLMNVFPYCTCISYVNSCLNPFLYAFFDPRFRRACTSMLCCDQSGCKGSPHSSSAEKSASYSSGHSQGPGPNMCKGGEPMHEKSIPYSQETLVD


Assays:
human APJ receptor = target: T1, human APJ receptor; assay: cell-based or functional assay
rat APJ receptor = target: T2, rat APJ receptor; assay: cell-based or functional assay

| Binder | EC50 Human APJ Receptor (GTPγS assay) (human APJ receptor) | EC50 Rat APJ Receptor (GTPγS assay) (rat APJ receptor) |
| --- | --- | --- |
| XXXQRPRLSHKGPXPF ({TDA}[AC4Abu][Aeea][Aeea]Q[hArg]P[NMeArg]LSHKGP[Nle]P[4-Cl-F]{COOH}) [Apelin polypeptide SEQ ID NO: 353] | 0.095 nM | 0.275 nM |
| Tridecanoyl-[γGlu][AEEA][AEEA][dQ][hArg]P[dR][Cha]SHKG[Oic][Nle]P[1Nal]-OH [Apelin polypeptide SEQ ID NO: 367] | 26.3 nM | 67.5 nM |
| Tridecanoyl-[γGlu][AEEA][AEEA]Q[hArg]P[NMeR]LSHKG[Oic][Nle]P[Phe(4-Cl)]-OH (SMILES CCCCCCCCCCCCC(=O)N[C@@H](CCC(=O)NCCOCCOCC(=O)NCCOCCOCC(=O)N[C@@H](CCC(N)=O)C(=O)N[C@@H](CCCCNC(=N)N)C(=O)N1CCC[C@H]1C(=O)N(C)[C@@H](CCCNC(=N)N)C(=O)N[C@@H](CC(C)C)C(=O)N[C@@H](CO)C(=O)N[C@@H](Cc1c[nH]cn1)C(=O)N[C@@H](CCCCN)C(=O)NCC(=O)N1[C@H](C(=O)N[C@@H](CCCC)C(=O)N2CCC[C@H]2C(=O)N[C@@H](Cc2ccc(Cl)cc2)C(=O)O)C[C@@H]2CCCC[C@@H]21)C(=O)O) [Apelin polypeptide SEQ ID NO: 354] | 0.279 nM | 0.361 nM |
| Tridecanoyl-[γGlu][AEEA][AEEA][dQ][hArg]P[dR][Cha]SHKG[Oic][Nle]P[Phe(4-Cl)]-OH [Apelin polypeptide SEQ ID NO: 363] | 3.27 nM | 3.96 nM |
| Tridecanoyl-[γGlu][AEEA][AEEA]Q[hArg]P[dR][Cha]SHKG[Oic][Nle]P[D‑4ClF]-OH [Apelin polypeptide SEQ ID NO: 364] | 6 nM | 20.4 nM |
| Tridecanoyl-[γGlu][AEEA][AEEA][dQ][hArg]P[dR][Cha]SHKG[Oic][Nle]P[Oic]-OH [Apelin polypeptide SEQ ID NO: 365] | 23 nM | 20.7 nM |
| Tridecanoyl-[γGlu][AEEA][AEEA][dQ][hArg]P[dR][Cha]SHKG[Oic][Nle]P[Aic]-OH [Apelin polypeptide SEQ ID NO: 366] | 17.1 nM | 23.6 nM |
| Tridecanoyl-[γGlu][AEEA][AEEA][dQ][hArg]P[dR][Cha]SHKG[Oic][Nle]P[2Nal]-OH [Apelin polypeptide SEQ ID NO: 368] | 32.3 nM | 31.4 nM |

Now from value to binder:

| EC50 Human APJ Receptor (GTPγS assay) (human APJ receptor) | EC50 Rat APJ Receptor (GTPγS assay) (rat APJ receptor) | Binder |
| --- | --- | --- |
| 11.1 nM | 16.2 nM | Tridecanoyl-[γGlu][AEEA][AEEA][dQ][hArg]P[dR][Cha]SHKG[Oic][Nle]P[B4ClF]-OH [Apelin polypeptide SEQ ID NO: 432] |
| 31.2 nM | 25 nM | Tridecanoyl-[γGlu][AEEA][AEEA][dQ][hArg]P[dR][Cha]SHKG[Oic][Nle]P[dIgl]-OH (SMILES CCCCCCCCCCCCC(=O)N[C@@H](CCC(=O)NCCOCCOCC(=O)NCCOCCOCC(=O)N[C@H](CCC(N)=O)C(=O)N[C@@H](CCCCNC(=N)N)C(=O)N1CCC[C@H]1C(=O)N[C@H](CCCNC(=N)N)C(=O)N[C@@H](CC1CCCCC1)C(=O)N[C@@H](CO)C(=O)N[C@@H](Cc1c[nH]cn1)C(=O)N[C@@H](CCCCN)C(=O)NCC(=O)N1[C@H](C(=O)N[C@@H](CCCC)C(=O)N2CCC[C@H]2C(=O)N[C@@H](C(=O)O)C2Cc3ccccc3C2)C[C@@H]2CCCC[C@@H]21)C(=O)O) [Apelin polypeptide SEQ ID NO: 431] |
| 12.9 nM | 23.7 nM | Tridecanoyl-[γGlu][AEEA][AEEA][dQ][hArg]P[dR][Cha]SHKG[Oic][Nle]P[Bh4ClF]-OH [Apelin polypeptide SEQ ID NO: 370] |
| 2.84 nM | 1.5 nM | Tridecanoyl-[γGlu][AEEA][AEEA][dQ][hArg]P[dR][Cha]SAKG[Oic][Nle]P[Phe(4-Cl)]-OH (SMILES CCCCCCCCCCCCC(=O)N[C@@H](CCC(=O)NCCOCCOCC(=O)NCCOCCOCC(=O)N[C@H](CCC(N)=O)C(=O)N[C@@H](CCCCNC(=N)N)C(=O)N1CCC[C@H]1C(=O)N[C@H](CCCNC(=N)N)C(=O)N[C@@H](CC1CCCCC1)C(=O)N[C@@H](CO)C(=O)N[C@@H](C)C(=O)N[C@@H](CCCCN)C(=O)NCC(=O)N1[C@H](C(=O)N[C@@H](CCCC)C(=O)N2CCC[C@H]2C(=O)N[C@@H](Cc2ccc(Cl)cc2)C(=O)O)C[C@@H]2CCCC[C@@H]21)C(=O)O) [Apelin polypeptide SEQ ID NO: 372] |
| 10.4 nM | 25 nM | Tridecanoyl-[γGlu][AEEA][AEEA][dQ][hArg]P[dR][Cha]S[Tle]KG[Oic][Nle]P[Phe(4-Cl)]-OH (SMILES CCCCCCCCCCCCC(=O)N[C@@H](CCC(=O)NCCOCCOCC(=O)NCCOCCOCC(=O)N[C@H](CCC(N)=O)C(=O)N[C@@H](CCCCNC(=N)N)C(=O)N1CCC[C@H]1C(=O)N[C@H](CCCNC(=N)N)C(=O)N[C@@H](CC1CCCCC1)C(=O)N[C@@H](CO)C(=O)N[C@H](C(=O)N[C@@H](CCCCN)C(=O)NCC(=O)N1[C@H](C(=O)N[C@@H](CCCC)C(=O)N2CCC[C@H]2C(=O)N[C@@H](Cc2ccc(Cl)cc2)C(=O)O)C[C@@H]2CCCC[C@@H]21)C(C)(C)C)C(=O)O) [Apelin polypeptide SEQ ID NO: 452] |
| 6.92 nM | 4.67 nM | Tridecanoyl-[γGlu][AEEA][AEEA][dQ][hArg]P[dR][Cha]SHK[Tle][Oic][Nle]P[Phe(4-Cl)]-OH [Apelin polypeptide SEQ ID NO: 371] |
| 11.2 nM | 31.6 nM | Tridecanoyl-[γGlu][AEEA][AEEA][dQ][hArg]P[dR][Cha]S[Deg]KG[Oic][Nle]P[Phe(4-Cl)]-OH (SMILES CCCCCCCCCCCCC(=O)N[C@@H](CCC(=O)NCCOCCOCC(=O)NCCOCCOCC(=O)N[C@H](CCC(N)=O)C(=O)N[C@@H](CCCCNC(=N)N)C(=O)N1CCC[C@H]1C(=O)N[C@H](CCCNC(=N)N)C(=O)N[C@@H](CC1CCCCC1)C(=O)N[C@@H](CO)C(=O)NC(CC)(CC)C(=O)N[C@@H](CCCCN)C(=O)NCC(=O)N1[C@H](C(=O)N[C@@H](CCCC)C(=O)N2CCC[C@H]2C(=O)N[C@@H](Cc2ccc(Cl)cc2)C(=O)O)C[C@@H]2CCCC[C@@H]21)C(=O)O) [Apelin polypeptide SEQ ID NO: 451] |
| 33.6 nM | 73 nM | Tridecanoyl-[AC4Abu][AEEA][AEEA][dQ][hArg]P[dR][Cha]SHKG[Oic][Nle]P[Gly(cPent)]-OH (SMILES CCCCCCCCCCCCC(=O)NCCC(C(=O)O)C(=O)NCCOCCOCC(=O)NCCOCCOCC(=O)N[C@H](CCC(N)=O)C(=O)N[C@@H](CCCCNC(=N)N)C(=O)N1CCC[C@H]1C(=O)N[C@H](CCCNC(=N)N)C(=O)N[C@@H](CC1CCCCC1)C(=O)N[C@@H](CO)C(=O)N[C@@H](Cc1c[nH]cn1)C(=O)N[C@@H](CCCCN)C(=O)NCC(=O)N1[C@H](C(=O)N[C@@H](CCCC)C(=O)N2CCC[C@H]2C(=O)N[C@H](C(=O)O)C2CCCC2)C[C@@H]2CCCC[C@@H]21) [Apelin polypeptide SEQ ID NO: 406] |
| 25.9 nM | 42 nM | Tridecanoyl-[γGlu][AEEA][AEEA][dQ][hArg]P[dR][Cha]SHKG[Oic][Nle]P[D‑4IF]-OH [Apelin polypeptide SEQ ID NO: 369] |
| 124 nM | 216 nM | Tridecanoyl-[AC4Abu][AEEA][AEEA][dQ][hArg]P[dR][Cha]SHKG[Oic][Nle]P[d2Nal]-OH (SMILES CCCCCCCCCCCCC(=O)NCCC(C(=O)O)C(=O)NCCOCCOCC(=O)NCCOCCOCC(=O)N[C@H](CCC(N)=O)C(=O)N[C@@H](CCCCNC(=N)N)C(=O)N1CCC[C@H]1C(=O)N[C@H](CCCNC(=N)N)C(=O)N[C@@H](CC1CCCCC1)C(=O)N[C@@H](CO)C(=O)N[C@@H](Cc1c[nH]cn1)C(=O)N[C@@H](CCCCN)C(=O)NCC(=O)N1[C@H](C(=O)N[C@@H](CCCC)C(=O)N2CCC[C@H]2C(=O)N[C@H](Cc2ccc3ccccc3c2)C(=O)O)C[C@@H]2CCCC[C@@H]21) [Apelin polypeptide SEQ ID NO: 407] |

From US10941182 (Amgen, dated 2021)
